# According to the supplement of paper PMC9112550, “Optimization of the antimicrobial peptide Bac7 by deep mutational scanning” (BMC Biology, 2022):
# Test system: Escherichia coli TOP10
# Test: shrunken log2 fold change of peptide-encoding DNA abundance (4.5 h post-induction vs induction); higher = less antimicrobial activity (less host growth inhibition)
# Conditions: time post-induction: 4.5 h; library: site-saturation at positions 5, 18, 19, 20
# 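Further: peptides expressed intracellularly from a pBAD plasmid library in pooled LB shake-flask culture, induced with 0.3% L-arabinose, DNA abundance read by NGS, three biological replicates, DESeq2 with apeglm shrinkage.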
row,Sequence,shrunken log2 fold change
1,RRIRCRPPRLPRPRPRPWQYPRP,0.0686
2,RRIRARPPRLPRPRPRPHCLPRP,-0.116
3,RRIRHRPPRLPRPRPRPHRWPRP,0.0507
4,RRIRPRPPRLPRPRPRPDKMPRP,0.0748
5,RRIRVRPPRLPRPRPRPLLAPRP,0.343
6,RRIRSRPPRLPRPRPRPWKDPRP,-0.00804
7,RRIRQRPPRLPRPRPRPMIIPRP,0.0698
8,RRIRIRPPRLPRPRPRPMTKPRP,0.0447
9,RRIRKRPPRLPRPRPRPFYIPRP,-0.44
10,RRIRARPPRLPRPRPRPHYGPRP,0.0153
11,RRIRTRPPRLPRPRPRPFNQPRP,-0.163
12,RRIRCRPPRLPRPRPRPLAGPRP,0.153
13,RRIRLRPPRLPRPRPRPVEVPRP,-0.0272
14,RRIRVRPPRLPRPRPRPGSWPRP,0.463
15,RRIRFRPPRLPRPRPRPVHVPRP,-0.191
16,RRIRRRPPRLPRPRPRPRPPPRP,0.931
17,RRIRFRPPRLPRPRPRPGNKPRP,-0.344
18,RRIRFRPPRLPRPRPRPRATPRP,0.691
19,RRIRNRPPRLPRPRPRPSIIPRP,-0.856
20,RRIRRRPPRLPRPRPRPNMYPRP,-0.16
21,RRIRCRPPRLPRPRPRPGNGPRP,0.217
22,RRIRWRPPRLPRPRPRPSSPPRP,-0.0889
23,RRIRWRPPRLPRPRPRPFQSPRP,-0.0153
24,RRIRWRPPRLPRPRPRPDLFPRP,0.133
25,RRIRCRPPRLPRPRPRPCRMPRP,-0.317

row,Sequence,shrunken log2 fold change
1,RRIRRRPPRLPRPRPRPGFSPRP,0.131
2,RRIRARPPRLPRPRPRPGVCPRP,0.571
3,RRIRHRPPRLPRPRPRPMKTPRP,-0.0218
4,RRIRPRPPRLPRPRPRPRPCPRP,0.188
5,RRIRVRPPRLPRPRPRPKKWPRP,-0.00649
6,RRIRMRPPRLPRPRPRPEQDPRP,0.0255
7,RRIRKRPPRLPRPRPRPKKFPRP,0.0892
8,RRIRPRPPRLPRPRPRPDGGPRP,-0.129
9,RRIRKRPPRLPRPRPRPQAFPRP,-0.0237
10,RRIRPRPPRLPRPRPRPTMEPRP,0.0735
11,RRIRFRPPRLPRPRPRPHPKPRP,0.827
12,RRIRVRPPRLPRPRPRPTYHPRP,1.5
13,RRIRTRPPRLPRPRPRPDARPRP,0.0965
14,RRIRMRPPRLPRPRPRPWIIPRP,-0.0943
15,RRIRERPPRLPRPRPRPWKTPRP,0.0324
16,RRIRHRPPRLPRPRPRPCRHPRP,-0.204
17,RRIRWRPPRLPRPRPRPQPLPRP,-0.0153
18,RRIRMRPPRLPRPRPRPTWVPRP,0.496
19,RRIRARPPRLPRPRPRPVHGPRP,0.785
20,RRIRYRPPRLPRPRPRPPHLPRP,-0.52
21,RRIRARPPRLPRPRPRPPNTPRP,0.289
22,RRIRQRPPRLPRPRPRPHEHPRP,0.0439
23,RRIRLRPPRLPRPRPRPTDIPRP,-0.0682
24,RRIRVRPPRLPRPRPRPSLQPRP,-0.0631
25,RRIRARPPRLPRPRPRPLSTPRP,0.319

row,Sequence,shrunken log2 fold change
1,RRIRMRPPRLPRPRPRPVMDPRP,0.025
2,RRIRYRPPRLPRPRPRPNMQPRP,-0.594
3,RRIRLRPPRLPRPRPRPQIQPRP,-0.0697
4,RRIRNRPPRLPRPRPRPFPAPRP,-0.0844
5,RRIRNRPPRLPRPRPRPACTPRP,-0.0652
6,RRIRLRPPRLPRPRPRPCIYPRP,-1.16
7,RRIRVRPPRLPRPRPRPFDLPRP,-0.24
8,RRIRIRPPRLPRPRPRPDVQPRP,-0.192
9,RRIRLRPPRLPRPRPRPKCQPRP,-0.319
10,RRIRNRPPRLPRPRPRPRQTPRP,0.112
11,RRIRMRPPRLPRPRPRPTQQPRP,0.54
12,RRIRARPPRLPRPRPRPINCPRP,-0.0513
13,RRIRARPPRLPRPRPRPDWWPRP,0.608
14,RRIRLRPPRLPRPRPRPQNEPRP,-0.459
15,RRIRPRPPRLPRPRPRPTWKPRP,-0.0108
16,RRIRARPPRLPRPRPRPVDAPRP,1.28
17,RRIRCRPPRLPRPRPRPFYAPRP,-0.813
18,RRIRHRPPRLPRPRPRPWRCPRP,-0.221
19,RRIRPRPPRLPRPRPRPKKKPRP,-0.192
20,RRIRNRPPRLPRPRPRPKGKPRP,0.0351
21,RRIRLRPPRLPRPRPRPAAAPRP,1.04
22,RRIRHRPPRLPRPRPRPKDKPRP,-0.23
23,RRIRLRPPRLPRPRPRPDPDPRP,-0.0677
24,RRIRFRPPRLPRPRPRPDKCPRP,-0.18
25,RRIRGRPPRLPRPRPRPKMMPRP,0.345

row,Sequence,shrunken log2 fold change
1,RRIRERPPRLPRPRPRPGRMPRP,0.0231
2,RRIRIRPPRLPRPRPRPIMQPRP,-0.557
3,RRIRPRPPRLPRPRPRPAQAPRP,0.329
4,RRIRQRPPRLPRPRPRPCEEPRP,-0.0216
5,RRIRYRPPRLPRPRPRPDQTPRP,0.00902
6,RRIRPRPPRLPRPRPRPAKCPRP,-0.172
7,RRIRLRPPRLPRPRPRPAHQPRP,-0.0828
8,RRIRPRPPRLPRPRPRPWYPPRP,-0.119
9,RRIRLRPPRLPRPRPRPIPDPRP,0.00718
10,RRIRHRPPRLPRPRPRPDFRPRP,-0.0827
11,RRIRCRPPRLPRPRPRPYYEPRP,-1.27
12,RRIRVRPPRLPRPRPRPMPLPRP,-0.348
13,RRIRMRPPRLPRPRPRPCCLPRP,0.273
14,RRIRKRPPRLPRPRPRPNAAPRP,0.986
15,RRIRERPPRLPRPRPRPWCMPRP,-0.533
16,RRIRHRPPRLPRPRPRPYRSPRP,0.0215
17,RRIRARPPRLPRPRPRPMRPPRP,0.342
18,RRIRPRPPRLPRPRPRPEYEPRP,-0.0375
19,RRIRLRPPRLPRPRPRPSLNPRP,-0.625
20,RRIRDRPPRLPRPRPRPFKQPRP,-0.235
21,RRIRQRPPRLPRPRPRPQGQPRP,0.254
22,RRIRTRPPRLPRPRPRPMFPPRP,0.0617
23,RRIRRRPPRLPRPRPRPLGQPRP,0.00384
24,RRIRARPPRLPRPRPRPKFCPRP,0.22
25,RRIRRRPPRLPRPRPRPPNIPRP,-0.0641

row,Sequence,shrunken log2 fold change
1,RRIRERPPRLPRPRPRPHPNPRP,-0.0522
2,RRIRRRPPRLPRPRPRPVRTPRP,0.328
3,RRIRMRPPRLPRPRPRPMKLPRP,-0.13
4,RRIRYRPPRLPRPRPRPAHCPRP,0.0564
5,RRIRVRPPRLPRPRPRPVPQPRP,0.324
6,RRIRRRPPRLPRPRPRPWKKPRP,-0.0288
7,RRIRGRPPRLPRPRPRPHRHPRP,0.107
8,RRIRHRPPRLPRPRPRPLSCPRP,-0.287
9,RRIRWRPPRLPRPRPRPHNCPRP,-0.349
10,RRIRERPPRLPRPRPRPMFHPRP,-0.897
11,RRIRMRPPRLPRPRPRPPQKPRP,0.173
12,RRIRQRPPRLPRPRPRPCQSPRP,-0.0019
13,RRIRDRPPRLPRPRPRPYDHPRP,-0.361
14,RRIRNRPPRLPRPRPRPLLKPRP,-0.539
15,RRIRNRPPRLPRPRPRPRISPRP,-0.408
16,RRIRPRPPRLPRPRPRPRMQPRP,1.48
17,RRIRGRPPRLPRPRPRPKVKPRP,0.547
18,RRIRRRPPRLPRPRPRPKYTPRP,-0.000338
19,RRIRMRPPRLPRPRPRPHHPPRP,-0.234
20,RRIRMRPPRLPRPRPRPLEYPRP,0.0611
21,RRIRPRPPRLPRPRPRPREIPRP,0.44
22,RRIRSRPPRLPRPRPRPPQTPRP,0.365
23,RRIRARPPRLPRPRPRPICQPRP,0.216
24,RRIRFRPPRLPRPRPRPFHEPRP,-0.649
25,RRIRHRPPRLPRPRPRPPVFPRP,0.612

row,Sequence,shrunken log2 fold change
1,RRIRIRPPRLPRPRPRPEAGPRP,-0.17
2,RRIRKRPPRLPRPRPRPRTPPRP,0.714
3,RRIRRRPPRLPRPRPRPYFSPRP,-0.122
4,RRIRKRPPRLPRPRPRPFEQPRP,0.0483
5,RRIRYRPPRLPRPRPRPQTLPRP,-0.088
6,RRIRGRPPRLPRPRPRPHIDPRP,0.301
7,RRIRCRPPRLPRPRPRPKGMPRP,-0.148
8,RRIRIRPPRLPRPRPRPFGPPRP,-0.189
9,RRIRHRPPRLPRPRPRPCRNPRP,-0.166
10,RRIRHRPPRLPRPRPRPEFPPRP,0.0962
11,RRIRKRPPRLPRPRPRPQTKPRP,0.069
12,RRIRCRPPRLPRPRPRPERLPRP,0.0345
13,RRIRYRPPRLPRPRPRPQQNPRP,-0.421
14,RRIRCRPPRLPRPRPRPTPWPRP,0.49
15,RRIRDRPPRLPRPRPRPLTLPRP,-0.0246
16,RRIRGRPPRLPRPRPRPQQPPRP,0.423
17,RRIRNRPPRLPRPRPRPYHDPRP,-0.165
18,RRIRNRPPRLPRPRPRPTRAPRP,0.683
19,RRIRIRPPRLPRPRPRPYRIPRP,-0.485
20,RRIRTRPPRLPRPRPRPKVAPRP,0.0317
21,RRIRFRPPRLPRPRPRPCENPRP,0.015
22,RRIRLRPPRLPRPRPRPTIVPRP,-0.183
23,RRIRVRPPRLPRPRPRPVKYPRP,0.228
24,RRIRARPPRLPRPRPRPDNQPRP,0.0635
25,RRIRPRPPRLPRPRPRPVSRPRP,0.0925
